# Assays:
# [1] = molecular target: T1, His-C3d-Avi, biotinylated (human complement C3d with N-terminal His-tag and C-terminal Avi-tag) (human, UniProt P01024 996-1303, site-specific biotinylation of the C-terminal Avi-tag); test: SPR BIAcore T200, biotinylated C3d-Avi immobilised, ISG65 as analyte; kon1
# T1 construct: domain: C3d; SPR ligand for the ISG65 mutants; not shown: N-terminal His-tag (pET15b); C-terminal Avi-tag
# [2] = molecular target: T1, His-C3d-Avi, biotinylated (human …); test: SPR BIAcore T200, biotinylated C3d-Avi immobilised, ISG65 as analyte
# [3] = molecular target: T2, C3b (human complement C3b) (human, UniProt P01024 23-667; P01024 749-1663); test: cell-based or functional assay
# [4] = molecular target: T1, His-C3d-Avi, biotinylated (human …); test: SPR BIAcore T200, biotinylated C3d-Avi immobilised, ISG65 as analyte; koff1
# His-C3d L1109A [5] = molecular target: T3, His-C3d L1109A (human, UniProt P01024 996-1303); test: SPR BIAcore T200, biotinylated ISG65-Avi immobilised, C3d L1109A as analyte
# T3 construct: domain: C3d; not shown: His-tag
# [6] = molecular target: T4, His-C3d (recombinant human complement C3d, wild type) (human, UniProt P01024 996-1303); test: SPR BIAcore T200, biotinylated ISG65-Avi immobilised, C3d Wt as analyte
# T4 construct: domain: C3d; Produced in E. coli; also called C3d Wt; TED; not shown: His-tag
# [7] = molecular target: T5, C3a (ANA domain of human complement C3, released) (human, UniProt P01024 672-748); test: SPR BIAcore T200, biotinylated ISG65-Avi immobilised, C3a as analyte
# T5 construct: domain: C3a
# [8] = molecular target: T6, C3 (H2O) (human complement C3 with hydrolysed thioester) (human, UniProt P01024 23-667; P01024 672-1663); test: SPR BIAcore T200, biotinylated ISG65-Avi immobilised, C3 (H2O) as analyte; kon1
# T6 construct: mature
# [9] = molecular target: T6, C3 (H2O) (human complement C3 with …); test: SPR BIAcore T200, biotinylated ISG65-Avi immobilised, C3 (H2O) as analyte
# [10] = molecular target: T7, Native human complement C3 (human, UniProt P01024 23-667; P01024 672-1663); test: SPR BIAcore T200, biotinylated ISG65-Avi immobilised, native C3 as analyte; overall KD of a two-step fit (kon1, kon2, koff1, koff2)
# T7 construct: mature; also called native C3; human C3
# [11] = molecular target: T8, C3c (fragment of human complement C3) (human, UniProt P01024 23-667; P01024 749-954; P01024 1321-1663); test: SPR, biotinylated ISG65 immobilised, C3c as analyte
# T8 construct: domain: C3c
# [12] = molecular target: T2, C3b (human complement C3b); test: SPR BIAcore T200, biotinylated ISG65-Avi immobilised, C3b as analyte; kon1
# [13] = molecular target: T7, Native human complement C3; test: SPR BIAcore T200, biotinylated ISG65-Avi immobilised, native C3 as analyte; koff1; koff1, first step of the two-step fit
# His-C3d E1110A = molecular target: T9, His-C3d E1110A (human, UniProt P01024 996-1303); test: SPR, relative to wild type C3d
# T9 construct: domain: C3d; not shown: His-tag
# [14] = molecular target: T4, His-C3d (recombinant human complement …); test: SPR, relative to wild type C3d
# His-C3d L1109A [15] = molecular target: T3, His-C3d L1109A; test: SPR, relative to wild type C3d
# [16] = molecular target: T4, His-C3d (recombinant human complement …); test: SPR BIAcore T200, biotinylated ISG65-Avi immobilised, C3d Wt as analyte; koff1
# [17] = molecular target: T2, C3b (human complement C3b); test: SPR BIAcore T200, biotinylated ISG65-Avi immobilised, C3b as analyte; koff1
# [18] = molecular target: T7, Native human complement C3; test: SPR BIAcore T200, biotinylated ISG65-Avi immobilised, native C3 as analyte; kon1; kon1, first step of the two-step fit
# [19] = molecular target: T2, C3b (human complement C3b); test: SPR BIAcore T200, biotinylated ISG65-Avi immobilised, C3b as analyte
# [20] = molecular target: T6, C3 (H2O) (human complement C3 with …); test: SPR BIAcore T200, biotinylated ISG65-Avi immobilised, C3 (H2O) as analyte; koff1
# [21] = molecular target: T4, His-C3d (recombinant human complement …); test: SPR BIAcore T200, biotinylated ISG65-Avi immobilised, C3d Wt as analyte; kon1
# [22] = molecular target: T1, His-C3d-Avi, biotinylated (human …); test: SPR, biotinylated C3d-Avi immobilised, ISG65 Y293A as analyte
# T4 sequence (P01024 996-1303 limits assumed): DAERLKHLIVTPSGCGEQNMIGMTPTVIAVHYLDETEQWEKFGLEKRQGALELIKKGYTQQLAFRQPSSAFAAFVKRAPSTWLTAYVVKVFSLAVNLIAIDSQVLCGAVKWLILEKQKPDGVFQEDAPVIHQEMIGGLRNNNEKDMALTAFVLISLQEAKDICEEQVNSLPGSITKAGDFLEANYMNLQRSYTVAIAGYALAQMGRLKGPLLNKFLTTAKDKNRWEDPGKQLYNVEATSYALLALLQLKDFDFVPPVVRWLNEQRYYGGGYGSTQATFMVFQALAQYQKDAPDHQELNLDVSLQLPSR
# T1 sequence (P01024 996-1303 limits assumed): as above
# T2 sequence (P01024 23-667 limits assumed, chain 1 of 2): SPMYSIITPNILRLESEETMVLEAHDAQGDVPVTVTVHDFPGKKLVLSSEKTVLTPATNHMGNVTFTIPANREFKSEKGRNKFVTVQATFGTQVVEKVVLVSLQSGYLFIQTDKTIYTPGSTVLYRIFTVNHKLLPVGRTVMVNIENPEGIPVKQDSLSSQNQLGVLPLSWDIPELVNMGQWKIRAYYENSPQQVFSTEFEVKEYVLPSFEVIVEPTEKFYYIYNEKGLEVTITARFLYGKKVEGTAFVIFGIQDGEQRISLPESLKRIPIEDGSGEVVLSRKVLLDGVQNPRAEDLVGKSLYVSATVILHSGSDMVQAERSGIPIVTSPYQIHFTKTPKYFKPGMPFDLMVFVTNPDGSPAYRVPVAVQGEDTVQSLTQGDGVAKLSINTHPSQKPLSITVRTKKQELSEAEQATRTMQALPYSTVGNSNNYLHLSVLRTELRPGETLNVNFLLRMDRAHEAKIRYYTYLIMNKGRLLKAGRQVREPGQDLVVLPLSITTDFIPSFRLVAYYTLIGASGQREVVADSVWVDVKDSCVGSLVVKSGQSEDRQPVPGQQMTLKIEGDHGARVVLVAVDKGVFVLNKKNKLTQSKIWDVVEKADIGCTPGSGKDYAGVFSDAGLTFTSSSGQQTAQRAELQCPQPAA
# T2 sequence (P01024 749-1663 limits assumed, chain 2 of 2): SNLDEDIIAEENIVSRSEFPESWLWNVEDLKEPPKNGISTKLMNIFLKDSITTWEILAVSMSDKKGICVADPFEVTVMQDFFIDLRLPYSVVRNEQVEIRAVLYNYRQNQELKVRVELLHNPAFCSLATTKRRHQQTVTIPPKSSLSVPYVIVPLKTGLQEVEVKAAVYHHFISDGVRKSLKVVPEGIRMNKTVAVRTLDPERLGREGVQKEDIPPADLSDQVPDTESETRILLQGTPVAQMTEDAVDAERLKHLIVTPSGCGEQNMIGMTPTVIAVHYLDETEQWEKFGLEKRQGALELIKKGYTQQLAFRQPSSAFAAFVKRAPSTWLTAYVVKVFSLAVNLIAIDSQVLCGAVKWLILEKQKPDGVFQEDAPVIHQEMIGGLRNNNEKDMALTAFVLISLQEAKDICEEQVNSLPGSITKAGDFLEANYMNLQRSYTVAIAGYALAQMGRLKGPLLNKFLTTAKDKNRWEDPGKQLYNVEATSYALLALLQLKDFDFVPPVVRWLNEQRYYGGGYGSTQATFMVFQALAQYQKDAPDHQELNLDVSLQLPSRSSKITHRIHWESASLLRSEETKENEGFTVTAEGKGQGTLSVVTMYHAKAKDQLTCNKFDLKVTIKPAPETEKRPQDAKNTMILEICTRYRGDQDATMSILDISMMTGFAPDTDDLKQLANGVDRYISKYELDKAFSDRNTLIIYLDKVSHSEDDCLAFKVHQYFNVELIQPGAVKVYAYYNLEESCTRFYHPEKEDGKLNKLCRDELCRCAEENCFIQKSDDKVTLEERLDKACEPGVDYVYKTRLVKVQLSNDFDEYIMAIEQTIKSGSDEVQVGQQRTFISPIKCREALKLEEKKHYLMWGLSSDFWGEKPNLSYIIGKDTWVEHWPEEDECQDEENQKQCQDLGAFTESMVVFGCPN
# T7 sequence (P01024 23-667 limits assumed, chain 1 of 2): as the sequence (P01024 23-667 limits assumed, chain 1 of 2) above
# T7 sequence (P01024 672-1663 limits assumed, chain 2 of 2): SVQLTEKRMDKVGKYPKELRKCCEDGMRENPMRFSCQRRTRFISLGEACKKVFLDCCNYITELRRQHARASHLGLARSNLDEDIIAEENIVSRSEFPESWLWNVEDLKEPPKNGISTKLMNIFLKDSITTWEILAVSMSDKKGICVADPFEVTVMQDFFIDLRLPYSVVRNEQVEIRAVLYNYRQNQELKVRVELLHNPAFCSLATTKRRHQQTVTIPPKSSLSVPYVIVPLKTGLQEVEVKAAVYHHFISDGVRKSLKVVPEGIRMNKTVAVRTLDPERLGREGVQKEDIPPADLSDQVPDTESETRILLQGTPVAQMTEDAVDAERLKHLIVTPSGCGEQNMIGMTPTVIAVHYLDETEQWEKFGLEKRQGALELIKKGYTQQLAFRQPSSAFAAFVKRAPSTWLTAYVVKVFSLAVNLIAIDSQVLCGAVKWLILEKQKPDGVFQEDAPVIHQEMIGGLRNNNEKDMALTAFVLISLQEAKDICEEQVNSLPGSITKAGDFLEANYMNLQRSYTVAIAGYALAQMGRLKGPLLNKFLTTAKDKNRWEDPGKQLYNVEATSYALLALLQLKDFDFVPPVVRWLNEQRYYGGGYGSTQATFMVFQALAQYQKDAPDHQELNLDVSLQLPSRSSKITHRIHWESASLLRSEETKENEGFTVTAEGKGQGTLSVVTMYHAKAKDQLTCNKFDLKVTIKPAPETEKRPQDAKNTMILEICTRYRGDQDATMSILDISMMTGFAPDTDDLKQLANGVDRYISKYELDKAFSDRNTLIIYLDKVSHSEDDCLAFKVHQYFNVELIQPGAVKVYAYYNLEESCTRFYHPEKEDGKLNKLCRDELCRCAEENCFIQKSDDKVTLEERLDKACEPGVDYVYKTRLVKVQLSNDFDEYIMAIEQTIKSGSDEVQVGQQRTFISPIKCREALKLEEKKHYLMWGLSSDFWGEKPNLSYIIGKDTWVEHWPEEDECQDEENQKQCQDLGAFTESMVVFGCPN
# T6 sequence (P01024 23-667 limits assumed, chain 1 of 2): as the sequence (P01024 23-667 limits assumed, chain 1 of 2) above
# T6 sequence (P01024 672-1663 limits assumed, chain 2 of 2): as the sequence (P01024 672-1663 limits assumed, chain 2 of 2) above
# T3 sequence (P01024 996-1303 L1109A limits assumed): as the sequence (P01024 996-1303 limits assumed) above, with L114A counted along it
# T9 sequence (P01024 996-1303 E1110A limits assumed): as the sequence (P01024 996-1303 limits assumed) above, with E115A counted along it
# T5 sequence (P01024 672-748 limits assumed): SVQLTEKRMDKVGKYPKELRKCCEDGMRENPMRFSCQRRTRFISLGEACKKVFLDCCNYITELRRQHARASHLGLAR
# T8 sequence (P01024 23-667 limits assumed, chain 1 of 3): as the sequence (P01024 23-667 limits assumed, chain 1 of 2) above
# T8 sequence (P01024 749-954 limits assumed, chain 2 of 3): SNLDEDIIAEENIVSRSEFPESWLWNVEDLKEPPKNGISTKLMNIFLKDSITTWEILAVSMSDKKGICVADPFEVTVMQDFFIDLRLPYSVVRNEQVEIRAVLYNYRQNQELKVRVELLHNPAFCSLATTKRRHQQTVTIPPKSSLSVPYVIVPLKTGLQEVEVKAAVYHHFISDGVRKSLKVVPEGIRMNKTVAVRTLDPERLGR
# T8 sequence (P01024 1321-1663 limits assumed, chain 3 of 3): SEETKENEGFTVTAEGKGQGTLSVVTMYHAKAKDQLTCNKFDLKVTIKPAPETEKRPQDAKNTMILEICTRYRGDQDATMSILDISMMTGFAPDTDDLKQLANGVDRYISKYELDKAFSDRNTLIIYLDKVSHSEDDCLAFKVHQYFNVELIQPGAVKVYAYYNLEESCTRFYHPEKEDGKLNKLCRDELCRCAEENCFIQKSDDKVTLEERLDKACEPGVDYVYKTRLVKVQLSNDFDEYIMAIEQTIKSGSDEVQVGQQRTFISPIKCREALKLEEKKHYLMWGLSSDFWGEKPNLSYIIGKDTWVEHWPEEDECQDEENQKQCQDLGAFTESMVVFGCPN
binder,measurement,setting,value
"His-ISG65 18-363 (extracellular domain of ISG65 of Trypanosoma brucei gambiense, Tbg.972.2.1600, with N-terminal hexa-histidine tag) (receptor, Expressed in E. coli T7 shuffle cells; also called ISG65 wt) MGSSHHHHHHSSGLVPRGSHMLLVIGSEDNRVPGDKKLTKEGAAALCKMKHLADKVAKERSQELKDRTQNFAGYIEFELYRIDYWLEKLNGPKGRKDGYAKLSDSDIEKVKEIFNKAKDGITKQLPEAKKAGEEAGKLHTEVKKAAENARGQDLDDDTAKSTGLYRVLNWYCITKEERHNATPNCDGIQFRKHYLSVNRSAIDCSSTSYEENYDWSANALQVALNSWEDVKPKKLESAGSDKNCNIGQSSESHPCTMTEEWQTPYKETVEKLRELEDAYQRGKKAHDAMLGYANTAYAVNTKVEQEKPLTEVIAAAKEAGKKGAKIIIPAAAPATPTNSTKNDDSAPTEHVDRGIATNETQVEVGID",kon,[1],1e+06 M⁻¹ s⁻¹
same,Kd,[2],27.9 nM
same,"relative AP50 of human plasma, day 0",[3],6 fold
same,koff,[4],0.04 s⁻¹
"His-ISG65 18-363-Avi, biotinylated at the C-terminal Avi-tag (receptor, site-specific biotinylation of the C-terminal Avi-tag, SPR ligand captured on a Series S sensor chip CAP; also called ISG65-Avi; biotinylated ISG65; not shown: C-terminal Avi-tag) MGSSHHHHHHSSGLVPRGSHMLLVIGSEDNRVPGDKKLTKEGAAALCKMKHLADKVAKERSQELKDRTQNFAGYIEFELYRIDYWLEKLNGPKGRKDGYAKLSDSDIEKVKEIFNKAKDGITKQLPEAKKAGEEAGKLHTEVKKAAENARGQDLDDDTAKSTGLYRVLNWYCITKEERHNATPNCDGIQFRKHYLSVNRSAIDCSSTSYEENYDWSANALQVALNSWEDVKPKKLESAGSDKNCNIGQSSESHPCTMTEEWQTPYKETVEKLRELEDAYQRGKKAHDAMLGYANTAYAVNTKVEQEKPLTEVIAAAKEAGKKGAKIIIPAAAPATPTNSTKNDDSAPTEHVDRGIATNETQVEVGID",Kd,His-C3d L1109A [5],52.9 nM
same,Kd,[6],7.2 nM
same,Kd,[7],18100 nM
same,kon,[8],942000 M⁻¹ s⁻¹
same,Kd,[9],18 nM
same,Kd,[10],129 nM
same,binding result,[11],no binding (tested: 280 nM)
same,kon,[12],262000 M⁻¹ s⁻¹
same,koff,[13],0.0543 s⁻¹
same,ISG65 binding (%),His-C3d E1110A,8%
same,ISG65 binding (%),[14],100%
same,ISG65 binding (%),His-C3d L1109A [15],45%
same,koff,[16],0.0379 s⁻¹
same,koff,[17],0.0212 s⁻¹
same,kon,[18],81800 M⁻¹ s⁻¹
same,Kd,[19],80.9 nM
same,koff,[20],0.017 s⁻¹
same,kon,[21],5.24e+06 M⁻¹ s⁻¹
"His-ISG65 18-363 Y293A (receptor, also called ISG65 Y293A) MGSSHHHHHHSSGLVPRGSHMLLVIGSEDNRVPGDKKLTKEGAAALCKMKHLADKVAKERSQELKDRTQNFAGYIEFELYRIDYWLEKLNGPKGRKDGYAKLSDSDIEKVKEIFNKAKDGITKQLPEAKKAGEEAGKLHTEVKKAAENARGQDLDDDTAKSTGLYRVLNWYCITKEERHNATPNCDGIQFRKHYLSVNRSAIDCSSTSYEENYDWSANALQVALNSWEDVKPKKLESAGSDKNCNIGQSSESHPCTMTEEWQTPYKETVEKLRELEDAYQRGKKAHDAMLGYANTAAAVNTKVEQEKPLTEVIAAAKEAGKKGAKIIIPAAAPATPTNSTKNDDSAPTEHVDRGIATNETQVEVGID",binding result,[22],no binding (tested: ISG65 1.5-100 nM)

# From US20260055148A1 (USTAV ORGANICKE CHEMIE A BIOCHEMIE AV CR V V I, published 2026)
